Key:
[1] = biological target: T1, human CD3 on cells (human PBMC; Jurkat TCR/CD3 NFAT reporter cells) (human, UniProt P07766 23-207; P04234 22-171; P09693 23-182); test: cell-based or functional assay
[2] = biological target: T2, recombinant CD3D&E protein (human CD3-his tag) (human, UniProt P04234 22-105; P07766 23-126, limits assumed); test: SPR Biacore, Ab captured on Protein A;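 also: humanized antibodies on a Protein A chip, human CD3-his analyte flowed over in serial dilutions for 3 min, dissociation tracked 120–360 s on a Biacore T200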
T2 construct: Analyte in Biacore; also called CD3D&E-His; CD3d&ε-His
T2 sequence (P04234 22-105 limits assumed, chain 1 of 2): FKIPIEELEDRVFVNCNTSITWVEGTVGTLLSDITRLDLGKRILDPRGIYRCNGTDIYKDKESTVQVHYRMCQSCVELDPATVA
T2 sequence (P07766 23-126 limits assumed, chain 2 of 2): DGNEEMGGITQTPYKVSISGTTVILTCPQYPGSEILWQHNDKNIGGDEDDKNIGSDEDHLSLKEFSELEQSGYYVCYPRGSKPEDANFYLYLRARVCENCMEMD

human CD3 protein = biological target: T3, human CD3 protein (human, UniProt P07766 23-126; P04234 22-105); test: ELISA, plate-coated CD3;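 also: binding to plate-immobilized human CD3 protein, bound antibody detected with peroxidase-labelled anti-human IgG and TMB, read as absorbance at 450 nm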
T3 construct: ELISA coating protein; also called Human CD3D & CD3E Heterodimer Protein
T3 sequence (P07766 23-126 limits assumed, chain 1 of 2): as the sequence (P07766 23-126 limits assumed, chain 2 of 2) above
T3 sequence (P04234 22-105 limits assumed, chain 2 of 2): as the sequence (P04234 22-105 limits assumed, chain 1 of 2) above

[3] = biological target: T1, human CD3 on cells (human PBMC; Jurkat …); test: cell-based or functional assay; remark: listed apart in the source

T1 sequence (P07766 23-207, chain 1 of 3): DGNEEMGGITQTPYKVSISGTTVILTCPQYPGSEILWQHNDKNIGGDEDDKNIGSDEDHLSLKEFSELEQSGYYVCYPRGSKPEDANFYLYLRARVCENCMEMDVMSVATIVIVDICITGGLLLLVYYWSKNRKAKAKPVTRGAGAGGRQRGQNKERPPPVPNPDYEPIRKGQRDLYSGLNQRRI
T1 sequence (P04234 22-171, chain 2 of 3): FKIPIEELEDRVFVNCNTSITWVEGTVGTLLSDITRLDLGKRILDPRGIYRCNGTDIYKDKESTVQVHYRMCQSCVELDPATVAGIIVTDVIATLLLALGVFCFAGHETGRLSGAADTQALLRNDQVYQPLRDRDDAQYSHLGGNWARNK
T1 sequence (P09693 23-182, chain 3 of 3): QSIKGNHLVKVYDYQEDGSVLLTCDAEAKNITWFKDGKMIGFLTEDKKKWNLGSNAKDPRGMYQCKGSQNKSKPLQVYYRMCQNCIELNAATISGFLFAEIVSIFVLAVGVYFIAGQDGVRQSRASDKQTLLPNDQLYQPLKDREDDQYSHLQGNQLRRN

Binder | CD3-NFAT Activity by CD3 mAb [1] [% SP34] | Kd [2] [nM] | koff [2] [s⁻¹] | kon [2] [M⁻¹ s⁻¹] | EC50 (human CD3 protein) [ng/mL] | % of SP34 [3] [%] | Emax [3]
Hu153A6B1-8 (antibody, V domains shown, humanized mAb) VH: EVQLQESGPGLVKPSETLSLTCTVSGGSISSYNIHWVRQPPGKGLEWIGRIRYNGDTSYNSALKSRVTISRDTSKNQFSLKLSSVTAADTAVYYCARGPYGGSREPLFDYWGQGTMVTVSS VL: DIQMTQSPSSLSASVGDRVTITCKTSQNINKYLNWFQQKPGKAPKLLIYTTNNLQTGIPSRFSGSGSGTDFTLTISSLQPEDFATYYCLQHGSGYTFGQGTKLEIK | > 50 | 49 | 0.0396 | 808000 | 2.95 | 70.5 | 4130
Hu153A6B1-18 (antibody, V domains shown, humanized mAb) VH: EVQLQESGPGLVKPSETLSLTCTVSGFSLTSYNIHWVRQPPGKGLEWMGRIRYNGDTSYNSALKSRLTISRDTSKNQVSLKLSSVTAADTAVYYCTRGPYGGSREPLFDYWGQGTMVTVSS VL: DIQMTQSPSSLSASVGDRVTITCKTSQNINKYLNWFQQKPGKAPKLLIYTTNNLQTGIPSRFSGSGSGTDFTLTISSLQPEDFATYFCLQHGSGYTFGQGTKLEIK | > 50 | 12.5 | 0.00107 | 85400 | 2.82 | 88.8 | 4900
Hu155A9B1-1 (antibody, V domains shown, humanized mAb) VH: EVQLQESGPGLVKPSETLSLTCTVSGGSISSYNVHWIRQPPGKGLEWIGRVRYNGDTSYNSALKSRVTISVDTSKNQFSLKLSSVTAADTAVYYCARGPYGGSSEPLFDYWGQGTMVTVSS VL: DIQMTQSPSSLSASVGDRVTITCKASQNINKYLNWYQQKPGKAPRLLIYTTNNLQTGVPSRFSGSGSGTDFTLTISSLQPEDFATYYCLQHNSGYTFGQGTKLEIK | ≤ 50 | 40.4 | 0.00441 | 109000 | 428 | 14.2 | 720
Hu153A6B1-6 (antibody, V domains shown, humanized mAb) VH: EVQLQESGPGLVKPSETLSLTCTVSGFSLTSYNIHWVRQPPGKGLEWMGRIRYNGDTSYNSALKSRLTISRDTSKNQVSLKLSSVTAADTAVYYCTRGPYGGSREPLFDYWGQGTMVTVSS VL: DIQMTQSPSSLSASVGDRVTITCKTSQNINKYLNWYQQKPGKAPKLLIYTTNNLQTGVPSRFSGSGSGTDFTLTISSLQPEDFATYYCLQHGSGYTFGQGTKLEIK | > 50 | 21.1 | 0.00181 | 85800 | 2.99 | 71.9 | 4210
Hu153A6B1-12 (antibody, V domains shown, humanized mAb) VH: EVQLQESGPGLVKPSETLSLTCTVSGFSLTSYNIHWVRQPPGKGLEWMGRIRYNGDTSYNSALKSRLTISRDTSKNQVSLKLSSVTAADTAVYYCTRGPYGGSREPLFDYWGQGTMVTVSS VL: DIQMTQSPSSLSASVGDRVTITCKTSQNINKYLNWFQQKPGKAPKLLIYTTNNLQTGIPSRFSGSGSGTDFTLTISSLQPEDFATYYCLQHGSGYTFGQGTKLEIK | > 50 | 13.5 | 0.00107 | 79400 | 2.69 | 87.5 | 4830
Hu155A9B1-2 (antibody, V domains shown, humanized mAb) VH: EVQLQESGPGLVKPSETLSLTCTVSGGSISSYNVHWVRQPPGKGLEWIGRVRYNGDTSYNSALKSRVTISRDTSKNQFSLKLSSVTAADTAVYYCARGPYGGSSEPLFDYWGQGTMVTVSS VL: DIQMTQSPSSLSASVGDRVTITCKASQNINKYLNWYQQKPGKAPRLLIYTTNNLQTGVPSRFSGSGSGTDFTLTISSLQPEDFATYYCLQHNSGYTFGQGTKLEIK | ≤ 50 | 15.8 | 0.00704 | 445000 | 26.4 | 12.9 | 656
Hu153A6B1-10 (antibody, V domains shown, humanized mAb) VH: EVQLQESGPGLVKPSETLSLTCTVSGGSISSYNIHWVRQPPGKGLEWMGRIRYNGDTSYNSALKSRLTISRDTSKNQFSLKLSSVTAADTAVYYCTRGPYGGSREPLFDYWGQGTMVTVSS VL: DIQMTQSPSSLSASVGDRVTITCKTSQNINKYLNWFQQKPGKAPKLLIYTTNNLQTGIPSRFSGSGSGTDFTLTISSLQPEDFATYYCLQHGSGYTFGQGTKLEIK | > 50 | 70.5 | 0.0568 | 806000 | 3.44 | 73.9 | 4080
Hu153A6B1-14 (antibody, V domains shown, humanized mAb) VH: EVQLQESGPGLVKPSETLSLTCTVSGGSISSYNIHWVRQPPGKGLEWIGRIRYNGDTSYNSALKSRVTISRDTSKNQFSLKLSSVTAADTAVYYCARGPYGGSREPLFDYWGQGTMVTVSS VL: DIQMTQSPSSLSASVGDRVTITCKTSQNINKYLNWFQQKPGKAPKLLIYTTNNLQTGIPSRFSGSGSGTDFTLTISSLQPEDFATYFCLQHGSGYTFGQGTKLEIK | > 50 | 51.7 | 0.053 | 1.02e+06 | 3.06 | 74.9 | 4140

More lines, now with the values ahead:

CD3-NFAT Activity by CD3 mAb [1] [% SP34] | Kd [2] [nM] | koff [2] [s⁻¹] | kon [2] [M⁻¹ s⁻¹] | EC50 (human CD3 protein) [ng/mL] | % of SP34 [3] [%] | Emax [3] | Binder
> 50 | 19.4 | 0.00177 | 91300 | 3.23 | 78.5 | 4600 | Hu153A6B1-5 (antibody, V domains shown, humanized mAb) VH: EVQLQESGPGLVKPSETLSLTCTVSGFSISSYNIHWVRQPPGKGLEWMGRIRYNGDTSYNSALKSRLTISRDTSKNQVSLKLSSVTAADTAVYYCTRGPYGGSREPLFDYWGQGTMVTVSS VL: DIQMTQSPSSLSASVGDRVTITCKTSQNINKYLNWYQQKPGKAPKLLIYTTNNLQTGVPSRFSGSGSGTDFTLTISSLQPEDFATYYCLQHGSGYTFGQGTKLEIK
> 50 | 76.2 | 0.0151 | 198000 | 3.03 | 75.2 | 4150 | Hu153A6B1-15 (antibody, V domains shown, humanized mAb) VH: EVQLQESGPGLVKPSETLSLTCTVSGGSISSYNIHWVRQPPGKGLEWMGRIRYNGDTSYNSALKSRLTISRDTSKNQFSLKLSSVTAADTAVYYCARGPYGGSREPLFDYWGQGTMVTVSS VL: DIQMTQSPSSLSASVGDRVTITCKTSQNINKYLNWFQQKPGKAPKLLIYTTNNLQTGIPSRFSGSGSGTDFTLTISSLQPEDFATYFCLQHGSGYTFGQGTKLEIK
> 50 | 61.9 | 0.111 | 1.8e+06 | 3.44 | 71.9 | 3970 | Hu153A6B1-16 (antibody, V domains shown, humanized mAb) VH: EVQLQESGPGLVKPSETLSLTCTVSGGSISSYNIHWVRQPPGKGLEWMGRIRYNGDTSYNSALKSRLTISRDTSKNQFSLKLSSVTAADTAVYYCTRGPYGGSREPLFDYWGQGTMVTVSS VL: DIQMTQSPSSLSASVGDRVTITCKTSQNINKYLNWFQQKPGKAPKLLIYTTNNLQTGIPSRFSGSGSGTDFTLTISSLQPEDFATYFCLQHGSGYTFGQGTKLEIK
≤ 50 | 29.6 | 0.0103 | 349000 | 6.38 | 23.2 | 1280 | Hu153A6B1-13 (antibody, V domains shown, humanized mAb) VH: EVQLQESGPGLVKPSETLSLTCTVSGGSISSYNIHWIRQPPGKGLEWIGRIRYNGDTSYNSALKSRVTISVDTSKNQFSLKLSSVTAADTAVYYCARGPYGGSREPLFDYWGQGTMVTVSS VL: DIQMTQSPSSLSASVGDRVTITCKTSQNINKYLNWFQQKPGKAPKLLIYTTNNLQTGIPSRFSGSGSGTDFTLTISSLQPEDFATYFCLQHGSGYTFGQGTKLEIK
> 50 | 11.4 | 0.00106 | 93000 | 3.05 | 81 | 4470 | Hu153A6B1-11 (antibody, V domains shown, humanized mAb) VH: EVQLQESGPGLVKPSETLSLTCTVSGFSISSYNIHWVRQPPGKGLEWMGRIRYNGDTSYNSALKSRLTISRDTSKNQVSLKLSSVTAADTAVYYCTRGPYGGSREPLFDYWGQGTMVTVSS VL: DIQMTQSPSSLSASVGDRVTITCKTSQNINKYLNWFQQKPGKAPKLLIYTTNNLQTGIPSRFSGSGSGTDFTLTISSLQPEDFATYYCLQHGSGYTFGQGTKLEIK
> 50 | 11.1 | 0.00106 | 95400 | 2.89 | 77.2 | 4260 | Hu153A6B1-17 (antibody, V domains shown, humanized mAb) VH: EVQLQESGPGLVKPSETLSLTCTVSGFSISSYNIHWVRQPPGKGLEWMGRIRYNGDTSYNSALKSRLTISRDTSKNQVSLKLSSVTAADTAVYYCTRGPYGGSREPLFDYWGQGTMVTVSS VL: DIQMTQSPSSLSASVGDRVTITCKTSQNINKYLNWFQQKPGKAPKLLIYTTNNLQTGIPSRFSGSGSGTDFTLTISSLQPEDFATYFCLQHGSGYTFGQGTKLEIK
≤ 50 | 45.2 | 0.0142 | 314000 | 6.78 | 26.9 | 1580 | Hu153A6B1-7 (antibody, V domains shown, humanized mAb) VH: EVQLQESGPGLVKPSETLSLTCTVSGGSISSYNIHWIRQPPGKGLEWIGRIRYNGDTSYNSALKSRVTISVDTSKNQFSLKLSSVTAADTAVYYCARGPYGGSREPLFDYWGQGTMVTVSS VL: DIQMTQSPSSLSASVGDRVTITCKTSQNINKYLNWFQQKPGKAPKLLIYTTNNLQTGIPSRFSGSGSGTDFTLTISSLQPEDFATYYCLQHGSGYTFGQGTKLEIK

From US20240417469A1 (CONCEPT TO MEDICINE BIOTECH, published 2024)
